Source: patent US20250179196A1 (Janssen / Centocor, published 2025)

What was measured:
[1] = molecular target: T1, human IL-23R expressed on the cell surface of stably transfected iLite and HEK cell lines (human, UniProt Q5VWK5 24-629); test: flow cytometry on human IL-23R HEK cells, Expt D (8-point, 96well)
T1 construct: whole, on cells; Same receptor on two transfected cell lines; the cell line is named under assay; also called human IL-23R iLite cells; human IL-23R HEK cells
T1 sequence (looked up): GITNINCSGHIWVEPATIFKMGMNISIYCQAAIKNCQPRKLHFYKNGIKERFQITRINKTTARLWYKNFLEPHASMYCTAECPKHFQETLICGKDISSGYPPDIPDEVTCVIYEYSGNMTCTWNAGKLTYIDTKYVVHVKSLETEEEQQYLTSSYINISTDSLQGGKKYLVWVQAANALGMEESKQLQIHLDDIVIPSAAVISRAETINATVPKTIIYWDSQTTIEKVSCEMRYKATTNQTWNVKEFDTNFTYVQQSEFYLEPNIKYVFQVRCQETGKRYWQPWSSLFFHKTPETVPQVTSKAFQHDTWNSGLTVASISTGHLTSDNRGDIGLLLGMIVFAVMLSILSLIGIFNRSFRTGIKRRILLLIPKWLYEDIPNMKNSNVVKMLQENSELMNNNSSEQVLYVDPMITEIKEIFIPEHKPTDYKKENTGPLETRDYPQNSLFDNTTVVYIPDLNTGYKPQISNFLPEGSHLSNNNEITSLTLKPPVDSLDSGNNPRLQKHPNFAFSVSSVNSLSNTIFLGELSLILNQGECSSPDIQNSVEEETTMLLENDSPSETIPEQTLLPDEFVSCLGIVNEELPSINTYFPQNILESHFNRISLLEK
Method in brief: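 Serially diluted IL-23R mAbs bound to mixed HEK-IL-23R and parental HEK cells for 30 min at 37 °C, in duplicate. After washes, 647 detection antibody geometric MFI measured on single viable (Sytox Green-negative) cells and fitted to a variable-slope dose-response against log mAb concentration.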

[2] = molecular target: T1, human IL-23R expressed on the cell …; test: flow cytometry on human IL-23R HEK cells, Expt E (11-point, 384well)
Method in brief: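 Antibody bound to HEK-IL-23R cells 30 min at 37 °C over 11 concentrations; after washes, Sytox Green added and cells run on iQue. Geometric MFI of 647 detection antibody on single viable cells fitted by variable-slope dose–response.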

[3] = molecular target: T2, rat IL-23R extracellular domain (ECD) protein (rat); test: SPR Biacore 8K, supernatant
T2 construct: also called rat IL-23R ECD; F1LX96 amino acids 24-354
T2 chain: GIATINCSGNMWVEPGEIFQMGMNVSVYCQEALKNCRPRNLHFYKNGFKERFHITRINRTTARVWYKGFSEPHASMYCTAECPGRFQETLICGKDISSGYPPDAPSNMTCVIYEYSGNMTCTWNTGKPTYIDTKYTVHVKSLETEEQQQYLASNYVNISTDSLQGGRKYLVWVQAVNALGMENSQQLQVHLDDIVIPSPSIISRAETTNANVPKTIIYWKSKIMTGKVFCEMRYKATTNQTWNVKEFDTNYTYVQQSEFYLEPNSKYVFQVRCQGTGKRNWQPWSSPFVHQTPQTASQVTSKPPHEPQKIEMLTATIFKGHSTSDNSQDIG
Procedure: Affinity by SPR using Biacore 8K. Affinity measurements using Surface Plasmon Resonance (SPR) were performed using a Biacore 8K system (Cytiva). […] Approximately 9000-10000 RU (response units) of mAbs were immobilized. The kinetic experiments were performed at 25° C. in running buffer 1× of (HBS-P+ Buffer 10× (Cytiva #BR100671)+100 μg/ml BSA). To perform kinetic experiments, approximately 150 RU of mAbs were captured followed by injections of human IL-23R or rat IL-23R at concentrations ranging from 0.8 nM to 500 nM (in a 5-fold serial dilution). The association phase was monitored for 3 minutes at 50 μL/min, then followed by 30 minutes of buffer flow (dissociation phase). […] The collected data were processed using Biacore insight Evaluation software (Version 3.0.12.15655). The kinetic analysis of the data was performed using a Langmuir 1:1 binding model. The result for each mAb was reported in the format of Ka (On-rate), Kd (Off-rate) and KD (equilibrium dissociation constant).

Binder | EC50 [1] | EC50 [2] | MFI (6.4 nM) [2] | binding result [3]
I23RB173 (antibody, mouse IgG2a, kappa, V domains shown, immunization; mouse IgG2a/kappa) VH: DVQLQESGPGLVKPSQSLSLTCSVTGYSITSGYYWNWIRQFPGNKLEWMGYISYDGGNNYNPSLKNRISITRDTSKNQFFLKLNSVTTEDTATYYCARDAGLLPYYAMDYWGQGTTLTVSS VL: DIKMTQSPAIMSASPGEKVTITCSASSSVSYMHWFQQKPGTSPKLWIYSTSNLASGVPARFSGSGSGTSYSLTISRMEAEDAATYYCQQRSSYPLTFGDGTKLEMKR | 0.4 nM | 7.4 nM | 100000 MFI | 
I23RB5 (antibody, mouse IgG2a, kappa, V domains shown, phage display; human V regions, mouse IgG2a/kappa constant regions; also called negative control mAb) VH: QVQLVQSGAEVKKPGSSVKVSCKASGGTFSSYAISWVRQAPGQGLEWMGGIIPIFGTANYAQKFQGRVTITADESTSTAYMELSSLRSEDTAVYYCARDSYYSTVTYYYFDYWGQGTLVTVSS VL: not shown |  |  |  | no binding (tested: 500 nM)
I23RB155 (antibody, mouse IgG2a, kappa, V domains shown, immunization; mouse IgG2a/kappa) VH: QVQLKESGPGLVKPSQSLSLTCSVTGYSITSGHSWNWIRQFPGNKLEWMGYISYDGTNDYNPSLKNRISITRDTSKNQFFLNLNSVTTEDTVTYYCARGGGYYGGTYRVFADWGQGTTLTVSS VL: QIVLSQSPASLAVSLGQRATISCRTSESVDTYGNSFIYWYQQKPGQPPKLLIYRASNLESGIPARFSGSGSRTDFTLTINPVEADDVATYYCQQGNKDPYTFGSGTKLEMKR | 0.9 nM | 10.1 nM | 177000 MFI | 
I23RB166 (antibody, mouse IgG2a, kappa, V domains shown, immunization; mouse IgG2a/kappa) VH: DVQLQESGPGLVKPSQTVSLTCTVTGYSITNGNHWWNWIRQVSGSKLEWIGYIRSSGSTDSNPSLKSRISITRDTSKNQLFLQLNSVTAEDIATYYCARERLRLRWSYFDYWGQGTTLTVSS VL: DIVMTQSHKFMSTSVGARVSITCKASQDVSTAVAWYQQKPGQSPKLLIYSASYRYTGVPDRFTGSGSGTDFTFTISSVQAEDLAVYYCQQHYSTPRTFGGGTKLEIKR | 0.3 nM | 11.6 nM | 198000 MFI | 
I23RB156 (antibody, mouse IgG2a, kappa, V domains shown, immunization; mouse IgG2a/kappa) VH: QVQLKESGPGLVAPSQSLSITCTVSGFSLTSYAINWVRQPPGKGLEWLGVIWTGGGTNYNSVFKSRLSISKDNSKSQIFLKMISLQTDDTARYYCARNRDYSNYRWYFDVWGAGTTLTVSS VL: DIVMTQSHKFMSTSVGDRVSITCKASQDVSTAVAWYQQKPGRSPKLLIYSAFYRYTGVPDRFTGSGSGTDFTFTIGSVQAEDLAVYYCQQHYSIPLTFGAGTKLELKR | 0.4 nM | 8.9 nM | 174000 MFI | 
I23RB160 (antibody, mouse IgG2a, kappa, V domains shown, immunization; mouse IgG2a/kappa) VH: QVQLKESGPDLVKPSQSLSLTCTVTGYSITSGYNWHWIRQFPGNKLEWMGYIHYSSGTIYNPSLKSRISITRDTSKNQFFLQLNSVTTEDTGTYYCARQLGLKAMDYWGQGTSVTVSS VL: DIVMTQSHKFMSTSVGDRVSITCKASQDVRTAVAWYQQKPGQSPKLLIHSASYRYTGVPDRFTGSGSGTDFTFTISSVQVEDLAVYYCQQHYTTPYTFGSGTKLEIKR | 0.4 nM | 5.6 nM | 185000 MFI | 
I23RB150 (antibody, mouse IgG2a, kappa, V domains shown, immunization; mouse IgG2a/kappa) VH: QIQLVQSGPELKKPGETVKISCKASAYTFTNYGMNWVKQAPGKGLKWMGWIKTNTGEPTYAEEFKGRFAFSLETSASTAYLQINNLKNEDTATYFCARSRQLGLRYYFDYWGQGTTLTVSS VL: DIVMTQSHKFMSTSVGGRVSITCKASQDVSTAVAWYQQKPGQSPRLLIYSASYRYTGVPDRFTGSGSGTDFTFTISSVQAEDLAVFYCQQHYSTPYTFGSGTRLEIKR | 0.8 nM | 16.2 nM | 103000 MFI | 
I23RB148 (antibody, mouse IgG2a, kappa, V domains shown, immunization; mouse IgG2a/kappa) VH: DVQLQESGPDLVKPSQSLSLTCTVTGYSITSGYNWHWIRQFPGNKLEWMGYIHSSGTTNYSPSLRSRLSITRDTSKNQFFLQLNSVTTEDTATYYCTRQLGLKAMEYWGQGTTLTVSS VL: DIVMTQSHKFMSTSVGDRVSLTCKASQEVRTAVAWYQQKPGQPPKLLIYSASYRYTGVPDRFTGSGSGTDFTFTIISVQAEDLAVYYCQQHYTTPYSFGSGTKLEIKR | 0.3 nM | 6 nM | 203000 MFI | 
I23RB162 (antibody, mouse IgG2a, kappa, V domains shown, immunization; mouse IgG2a/kappa) VH: EFQLQQSGPELVKPGASVKMSCKASGYTFTNYVMHWVKQKPGQGLEWIGYINPYNDGTKYNEKFKGKATLTSDKSSSTAYMELSSLTSEDSAVYYCARSRTGTRWYFDVWGAGTTVTVSS VL: DIVMTQSQKFMSTSVGDRVSVTCKASQNVGTNVAWYQQKPGQSPKALIYSASYRYSGVPDRFTGSGSGTDFTLTISNVQSEDLAEYFCQQYNSYPFTFGSGTKLEIKR | 0.1 nM | 2.8 nM | 269000 MFI | 
I23RB168 (antibody, mouse IgG2a, kappa, V domains shown, immunization; mouse IgG2a/kappa) VH: QIQLVQSGPELVKPGASVKMSCKTSGYTFTDYYINWVKQRPGQGLEWIGWIYPAINNTNYNEKFKGKATLTVDTSSRTAYMQLNSLTSEDSAVYFCAISRKPYFDYWGQGTTLTVSS VL: DIQMTQSSSSFSVSLGDRVTITCKASEDLYNRLAWYQQKPGNAPRLLISGATSLGTGVLSRFSGSGSGKDYTLSITSLQTEDVATYYCQQYWSIPWTFGAGTKLELKR | 3.4 nM | 22.1 nM | 73000 MFI | 
I23RB182 (antibody, mouse IgG2a, kappa, V domains shown, immunization; mouse IgG2a/kappa) VH: EVQLQQSGPGLVKPSQSLSLTCSVTGYSITSGYFWNWLRQFPGSKLEWMGFIDNDGSNDYNPSLKNRISITRDTSKNQFFLRLNSVTTEDTATYYCARGRLGFFDSWGPGTTLTVSS VL: DIVMTQSPAIMSASLGEKVTMSCRASSSVNYMYWYQQKSDASPKLWIYYTSNLAPGVPARFSGSGSGNSYSLTISSMEGEDAATYYCQQFTNSPWTFGAGTKLELKR | 36.4 nM | > 50 nM | 26200 MFI | 
I23RB169 (antibody, mouse IgG2a, kappa, V domains shown, immunization; mouse IgG2a/kappa) VH: QIQLVQSGPELKKPGETVKISCKASGYTFTTVGMQWVQKMPGKGFKWIGWINTHSGEPKYTDDFKGRFAFSLETSASTAYLQISNLKSEDTATYFCARSSALTGAFAYWGQGTLVTVSS VL: DIKMTQSPASLAVSLGQRATISCRASKSVSTSDYSYMHWYQQKPGQPPKLLIYLASNLESGVPARFSGSGSGTDFTLNIHPVEEEDAATYYCQHSRELPRTFGAGTKLELKR | 0.7 nM | 15.4 nM | 132000 MFI | 
I23RB165 (antibody, mouse IgG2a, kappa, V domains shown, immunization; mouse IgG2a/kappa) VH: EVQLQQSGAELVRPGASVKLSCTASGFNIKDSLMHWVKQRPEQGLEWIGWIDPEDGKTKYAPKFQDKATITADTSSNTAYLQLSSLTSEDTAIYYCARREVLDYFDYWGQGTTLTVSS VL: DIVMTQSPASLAVSLGQRATISCRASKSVSTSGYSYMHWYQQKPGQPPKLLIYLASNLESGVPARFSGSGSGTDFTLNIHPVEEEDAATYYCQHSRELPLTFGAGTKLEMKR | 0.6 nM | 9.7 nM | 116000 MFI | 
I23RB144 (antibody, mouse IgG2a, kappa, V domains shown, immunization; mouse IgG2a/kappa) VH: EVQLQQSGPELVKPGASVKMSCKASGYTFTSYIIHWVKQKPGQGLEWIGYIDPYNDDTKYNEKFKGKATLTSDKSSSTAYMEFSSLTSEDSAVYYCARLGSINYYDGSYFDYWGQGTSVTVSS VL: DIVMTQSPLTLSVIIGQSASISCKSSQSLLDSDGKTYLNWLLQRPGQSPKRLMYLVSKLDSGVPDRFTGSGSGTDFTLKISRVEAEDLGVYYCWQGIHFPLTFGSGTRLEIKR | 13.4 nM | > 50 nM | 46200 MFI | 
